Results published in patent publication US20210363269A1 (ALX ONCOLOGY, published 2021).
Changes are numbered by the printed parent chain.

T1: cynomolgus SIRP-α D1 domain (cyno1) (cynomolgus monkey, UniProt Q5TFQ8 30-148 (human entry), limits assumed)
T1 chain: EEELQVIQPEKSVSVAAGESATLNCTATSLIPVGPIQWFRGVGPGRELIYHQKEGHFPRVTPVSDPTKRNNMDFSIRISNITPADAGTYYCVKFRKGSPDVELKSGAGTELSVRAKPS

T2: C57BL/6 mouse SIRP-α D1 domain (mouse (C57BL/6 strain), UniProt P97797 32-148)
T2 sequence: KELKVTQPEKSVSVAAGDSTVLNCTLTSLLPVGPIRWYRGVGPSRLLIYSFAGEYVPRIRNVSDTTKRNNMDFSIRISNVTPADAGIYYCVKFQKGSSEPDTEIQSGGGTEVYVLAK

T3: cynomolgus SIRP-α D1 domain (cyno2) (cynomolgus monkey, UniProt Q5TFQ8 30-148 (human entry), limits assumed)
T3 chain: T1 chain with E19D, A27V, T28S, V42A, H51N, Q52L, P62A

T4: NOD mouse SIRP-α D1 domain (mouse (NOD strain))
T4 chain: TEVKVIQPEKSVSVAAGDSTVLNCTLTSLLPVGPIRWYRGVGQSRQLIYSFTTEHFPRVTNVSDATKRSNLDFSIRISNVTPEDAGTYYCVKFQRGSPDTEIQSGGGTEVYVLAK

T5: high affinity SIRP-α D1 variant CV1-3
T5 chain: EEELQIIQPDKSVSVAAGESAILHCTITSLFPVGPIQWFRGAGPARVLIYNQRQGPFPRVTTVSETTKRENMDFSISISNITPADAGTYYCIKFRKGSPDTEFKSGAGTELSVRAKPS

T6: mouse 129 SIRP-α D1 domain (mouse (129 strain), UniProt P97797 32-150)
T6 construct: also called m129
T6 chain: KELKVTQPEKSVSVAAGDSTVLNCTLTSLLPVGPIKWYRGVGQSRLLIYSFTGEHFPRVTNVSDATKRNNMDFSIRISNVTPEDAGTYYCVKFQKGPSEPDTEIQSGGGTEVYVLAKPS

B1: antibody 16 (antibody, V domains shown)
VH: DVQLVESGGGVVRPGESLRLSCAVSGFRFSSYAMSWVRQAPGKGLEWVSGISSGGDTYYVDSVKGRFTISRDNSKNTLYLQVNSLTAEDTAIYYCARETWNHLFDYWGLGTLVTVSS
VL: ALTQPASVSANLGETVKITCSGGDSSSHYYGWYQQKSPGSAPVTVIYSDDERPSDIPSRFSGSASGSTATLTITGVRVEDEAIYYCGAYDGSTYANTFGAGTTLTVL
notes: also called S16
B2: S70 (scFv, V domains shown)
VH: DVQLVESGGGVVRPGESLRLSCAASGFTFSSYAMSWVRQAPGKGLEWLAGISAGGSDAYYIDSVKGRFTISRDNSKNSLYLQMNSLTAEDTAVYYCARETWNHLFDYWGLGTLVTVSS
VL: ALTQPASVSANPGETVKITCSGGDWYSTYYGWYQQKSPGSAPVTVIHSDDKRPSDIPSRFSGSASGSAATLTITGVRVEDEAVYYCAGYDGRTYINTFGAGTTLTVL
notes: also called clone 70
B3: S22 (scFv, V domains shown)
VH: DVQLVESGGGVVRPGESLRLSCAASGFTFSSYAMSWVRQAPGKGLEWLAGISAGGSDTYYIDSVKGRFTISRRQFQEQSLSPNEPALTAEDTAVYYCARETWNHLFDYWGLGTLVTVSS
VL: B2 VL with W25Y, T74A, Y85F, A87G, G88A
notes: also called clone 22
B4: S24 (scFv, V domains shown)
VH: B2 VH with Y32N, A58T, I61P, D62A, S75P, S78T, S85T
VL: ALTQPASVSANPGETVKIACSGGSYYSYYYGWYQQKSPGSALVTVIYSDDKRPSGIPSRFSGSASGSTATLTITGVRAEDEAVYYCGGYDYSSYTNDFGAGTTLTVL
notes: also called clone 24
B5: S21 (scFv, V domains shown)
VH: B2 VH with Y32N, A58T, I61P, D62A, S78T, S85T
VL: B4 VL with S24D, S37A, G55D, S93T, T95A, D97A
notes: also called clone 21; scFv-Fc form of AB21
B6: S202 (scFv, V domains shown)
VH: B2 VH with A58T
VL: B2 VL with D24G, W25Y, K36R, I95L
B7: S71 (scFv, V domains shown)
VH: B2 VH with A58T
VL: B2 VL with D24G, W25Y, G91A
notes: also called clone 71
B8: S201 (scFv, V domains shown)
VH: DVQLVESGGAVVRPGETLRLSCTASGFTFSSYAMSWVRQAPGKGLEWVSGISASGSDTYYADSVKGRSTISRDNSKNTLYLRMSSLTAEDTAVYYCARETWNHLFDYWGLGTLVTVSS
VL: ALTQPASVSANPGETVKITCSGGGTSSYYGWYQQKSPGSAPVTLIHSDDKRPSDIPSRFSGSASGSTATLTITGVQVEDEAVYYCGGYDYTTYVNTFGAGTTLTVL
B9: S206 (scFv, V domains shown)
VH: B8 VH with V116L
VL: B8 VL with V77A
B10: S3 (scFv, V domains shown)
VH: AVTLDESGGGLQTPGGALSLVCKASGFIFSDYGMNWVRQAPGKGLEFVAQITSGSRTYYGAAVKGRATISRDNRQSTVKLQLNNLRAEDTGIYFCARDFGSGVGSIDAWGNGTEVIVSS
VL: ALTQPASVSANLGGTVKITCSGSRGRYGWYQQRSPGSAPVTVIYRDNQRPSNIPSRFSSSTSGSTSTLTITGVQADDESVYFCGSYDGSIDIFGAGTTLTVL
notes: also called clone 3; scFv-Fc form of AB3
B11: S25 (scFv, V domains shown)
VH: DVQLVESGGGVVRPGESLRLSCEASGFTFSSNAMSWVRQAPGKGLEWVAGISSGSDTYYGDSVKGRLTISRDNSKNILYLQMNSLTAEDTAVYYCARETWNHLFDYWGLGTLVTVSS
VL: B4 VL with K17E, A19T, Y26S, G31A, L42P, V45L, G55N, Y85F, Y91Q, D97P
notes: also called clone 25; scFv-Fc form of AB25
B12: S28 (scFv, V domains shown)
VH: B11 VH with E23A, T28S, S53A, G54S, S55G, G60S, D61G, V63M, L67F, I77T
VL: ALTQPASVSANPGETVKITCSGGSDSYYYGWHQQKSPGSAPVTVIYSDDQRPPDIPSRFSGSASGSTTTLTITGVRAEDEAVYYCGGYDYSTYTNTFGAGTTLTVL
notes: also called clone 28
B13: S73 (scFv, V domains shown)
VH: B11 VH with V37A
VL: B4 VL with A19T, S24I, Y26S, G31A, L42P, V45L, G55N, Y85F, Y91Q, D97P
notes: also called clone 73

target: T7, human SIRP-α v1 (human, UniProt P78324 31-149); assay: SPR
T7 construct: also called Human v1; Human V1
T7 sequence (P78324 31-149 limits assumed): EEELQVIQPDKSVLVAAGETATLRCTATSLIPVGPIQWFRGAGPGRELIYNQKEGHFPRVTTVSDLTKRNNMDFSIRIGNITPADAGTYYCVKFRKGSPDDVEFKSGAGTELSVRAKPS
Summary of the method: (§1)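 Purified antibodies were either amine-coupled to a GLC chip or captured via biotinylated Protein A on an NLC chip of a ProteOn XPR36 biosensor. Runs were at 25° C in PBS pH 7.4 with 0.01% Tween-20. SIRP analytes were injected in one-shot kinetic mode at nominal concentrations set by A280 absorbance. Double-referenced data were fitted globally to a simple Langmuir model, giving apparent rate constants, with KD taken as kd/ka.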

Binder | Kd [pM]
B1 | < 1

target: T8, human SIRP-α v2 (human); assay: SPR
T8 construct: also called Human v2; Human V2
T8 sequence (chain, as listed by the source limits assumed): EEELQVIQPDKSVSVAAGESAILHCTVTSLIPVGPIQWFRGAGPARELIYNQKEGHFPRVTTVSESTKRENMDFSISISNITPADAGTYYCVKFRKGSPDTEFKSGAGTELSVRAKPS
Summary of the method: as §1

Binder | Kd [pM]
B1 | < 1

Target: T1, cynomolgus SIRP-α D1 domain (cyno1)
Assay: SPR, Langmuir fit
Summary of the method: (§2)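 scFv-Fc antibody clones were captured from pre-filtered culture media onto anti-human IgG Fc, amine-coupled at about 4000 RU on a GLC chip in a ProteOn XPR36 instrument. SIRP analytes were passed over in PBS pH 7.4 with 0.01% Tween-20 at 25° C, and responses were double-referenced against interspot and buffer-blank signals. Curves were fitted to a 1:1 Langmuir model. Dissociation rate constants (koff) were taken from those fits.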

Binder | koff [s⁻¹]
B2 | 0.000296
B3 | 0.000177
B4 | 0.000382
B5 | 0.000233
B6 | 0.000113
B7 | 0.000364
B8 | 0.000636
B9 | 0.000624
B10 | 0.00218
B11 | 0.000219
B12 | 0.000115
B13 | 0.000127

target: T2, C57BL/6 mouse SIRP-α D1 domain; assay: SPR, Langmuir fit
Summary of the method: as §2

Binder | koff [s⁻¹]
B2 | 0.000987
B3 | 0.000736
B4 | 0.00126
B5 | 0.000806
B6 | 0.00063
B7 | 0.00341
B8 | 0.00111
B9 | 0.00157
B10 | 0.00197
B11 | 0.00029
B12 | 0.00186
B13 | 0.000373

Target: T3, cynomolgus SIRP-α D1 domain (cyno2)
Assay: SPR, Langmuir fit
Summary of the method: as §2

Binder | koff [s⁻¹]
B2 | 0.000245
B3 | 0.000177
B4 | 0.000334
B5 | 0.000252
B6 | 0.00012
B7 | 0.000313
B8 | 0.000522
B9 | 0.000518
B10 | 0.00174
B11 | 0.000212
B12 | 0.000132
B13 | 0.000119

target: T9, human SIRP-α v2 D1 domain (human); assay: SPR, Langmuir fit
T9 construct: also called human v2
T9 sequence (chain, as listed by the source limits assumed): as above
Summary of the method: as §2

Binder | koff [s⁻¹]
B2 | 0.00029
B3 | 0.000146
B4 | 0.000317
B5 | 0.000207
B6 | 5.4e-05
B7 | 0.000403
B8 | 4.27e-05
B9 | 3.6e-05
B10 | 0.000276
B11 | 0.000209
B12 | 1.47e-05
B13 | 7.49e-05

target: T10, human SIRPβ isoform 1 (human, UniProt O00241 30-148); assay: SPR, Langmuir fit
T10 construct: also called SIRPb; sirpb1
T10 sequence (O00241 30-148 limits assumed): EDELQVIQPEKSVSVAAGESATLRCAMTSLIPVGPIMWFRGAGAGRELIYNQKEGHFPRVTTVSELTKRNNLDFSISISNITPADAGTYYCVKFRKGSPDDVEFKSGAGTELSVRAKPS
Summary of the method: as §2

Binder | koff [s⁻¹]
B2 | 0.000225
B3 | 0.000138
B4 | 0.000194
B5 | 0.00019
B6 | 0.00205
B7 | 0.000388
B8 | 0.0041
B9 | 0.00437
B10 | 0.00192
B11 | 0.000171
B12 | 6.29e-05
B13 | 0.000108

Target: T4, NOD mouse SIRP-α D1 domain
Assay: SPR, Langmuir fit
Summary of the method: as §2

Binder | koff [s⁻¹]
B2 | 0.000672
B3 | 0.000583
B4 | 0.00386
B5 | 0.00264
B6 | 0.000509
B7 | 0.00112
B8 | 0.00215
B9 | 0.00223
B10 | 0.00119
B11 | 0.000779
B12 | 0.000616
B13 | 0.00148

Target: T5, high affinity SIRP-α D1 variant CV1-3
Assay: SPR, Langmuir fit
Summary of the method: as §2

Binder | koff [s⁻¹]
B2 | 0.00026
B3 | 0.000135
B4 | 0.000216
B5 | 0.000195
B6 | 6.86e-05
B7 | 0.000379
B8 | 8.32e-05
B9 | 8.22e-05
B10 | 0.000394
B11 | 0.00014
B12 | 6.59e-05
B13 | 5.28e-05

target: T11, human SIRP-α v1 D1 domain (human, UniProt P78324 31-149); assay: SPR, Langmuir fit
T11 construct: also called human v1
T11 sequence (P78324 31-149 limits assumed): as the sequence (P78324 31-149 limits assumed) above
Summary of the method: as §2

Binder | koff [s⁻¹]
B2 | 0.000225
B3 | 0.000121
B4 | 0.000257
B5 | 0.00018
B6 | 3.75e-05
B7 | 0.000335
B8 | 3.46e-05
B9 | 3.5e-05
B10 | 0.00041
B11 | 0.000112
B12 | 2.11e-05
B13 | 1.9e-05

target: T12, human SIRPγ isoform 1 (human, UniProt Q9P1W8 29-147); assay: SPR, Langmuir fit
T12 construct: also called SIRPg; sirpg
T12 sequence (Q9P1W8 29-147 limits assumed): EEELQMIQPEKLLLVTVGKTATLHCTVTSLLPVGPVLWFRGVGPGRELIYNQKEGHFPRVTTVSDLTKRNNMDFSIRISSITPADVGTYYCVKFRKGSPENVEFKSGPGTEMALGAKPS
Summary of the method: as §2

Binder | koff [s⁻¹]
B2 | 0.000222
B3 | 0.000108
B4 | 0.000197
B5 | 0.000184
B6 | 4.44e-05
B7 | 0.000316
B8 | 0.000185
B9 | 0.000192
B10 | 0.000162
B11 | 0.000141
B12 | 3.27e-05
B13 | 7.3e-05

Target: T6, mouse 129 SIRP-α D1 domain
Assay: SPR, Langmuir fit
Summary of the method: as §2

Binder | koff [s⁻¹]
B2 | 0.00027
B3 | 0.000153
B4 | 0.000402
B5 | 0.000281
B6 | 4.58e-05
B7 | 0.000417
B8 | 0.000818
B9 | 0.000901
B10 | 0.000655
B11 | 0.000133
B12 | 0.000306
B13 | 0.000164
